Positions count from the first letter of the chain named. One block for each binder: values may come before it.
Assays:
[1] = biological target: T1, recombinant human TFPI (tissue factor pathway inhibitor) (human, UniProt P10646 29-304); assay: yeast-display scFv, FACS with biotinylated TFPI
T1 construct: Biotin-conjugated in the yeast FACS; also called hTFPI; TFPI antigen
Experimental: The finally amplified single colonies were collected from the yeast display library, and then cultured in SD medium at 30° C. at 200 rpm for 12 hours. Then, the medium was replaced with SG medium, and the cells were cultured at 25° C. at 200 rpm for 12 hours or more, thereby expressing the antibody on the yeast surface. Next, the yeast cells recovered by centrifugation were washed with PBSF (1% BSA containing PBS) buffer, resuspended in 50 μl of PBSF buffer, and then incubated with a biotin-conjugated recombinant human TFPI protein and anti-c-myc mouse antibody (CAT. No. M4439, Sigma) at room temperature for 30 minutes. The incubated yeast cells were washed with PBSF, resuspended in 50 μl of PBSF buffer, and then incubated with FITC-conjugated anti-mouse antibody (CAT. No. F0257, Sigma) and PE-conjugated streptavidin on ice under a light-shielded condition for 15 minutes. Next, the cells were washed with PBSF buffer, resuspended in 500 μl of PBSF buffer, and then clones showing high values in the FITC and PE wavelength ranges were selected by FACS, thereby obtaining individual clones.

[2] = biological target: T1, recombinant human TFPI (tissue factor …); assay: cell-based or functional assay
[3] = biological target: T1, recombinant human TFPI (tissue factor …); assay: SPR, Biacore T-200; TFPI immobilised on CM5 chip, IgG as analyte
Experimental: 10 mM of glycine-HCl (pH 1.5) was run at a flow rate of 30 μL/min for 30 seconds, thereby inducing the dissociation of the antibody associated with the TFPI. The affinity in terms of kinetic rate constants (Kₒₙ and Koff) and equilibrium dissociation constant

- binding result [1]: binds
B1: clone 4278 (antibody, V domains shown)
VH: EVQLVESGGGLVKPGGSLRLSCAASGFTFSKYAMNWFRQAPGKGLEWVSTITLGGSYTYYADSVDGRFTISRDNAKNSLYLQMNSLRAEDTAVYYCARQYLDGNFLMDYWGQGTLVTVSS
VL: DVVMTQTPLSLPVTLGQPASISCKSSQSLLDIDGKTYLNWLQQRPGQSPKRLIYLVSKLDSGVPDRFTGSGSGTDFTLKISRVEAEDVGVYYCWQGTHFPFTFGQGTKVEIKR
notes: scFv on yeast at selection; human IgG4/kappa IgG as purified

- binding result [1]: binds
B2: clone 14 (antibody, V domains shown)
VH: B1 VH
VL: B1 VL with Q27P, I32S, H98Y
notes: human IgG4/kappa IgG as purified

- binding result [1]: binds
B3: clone 15 (antibody, V domains shown)
VH: B1 VH with L53T, D65E, Y100H, L101P, D102Y
VL: B1 VL with Q27P, I32S, T97F, H98Y
notes: as for B2

- effect of inhibiting TFPI, FXa activity assay, Ab 10 nM [2]: 89%
- Kd [3]: 9.4 pM
B4: clone T308 (antibody, human IgG4, V domains shown)
VH: EVKLVESGGGLVKPGGSLKLSCAASGFTFSNYPMSWVRQTPEKRLEWVATISNSGSYTYYPDSVKGRFTISRDNAKNTLYLQMNSLRSEDTAMYYCARQVYGNYEDFDYWGQGTTLTVSS
VL: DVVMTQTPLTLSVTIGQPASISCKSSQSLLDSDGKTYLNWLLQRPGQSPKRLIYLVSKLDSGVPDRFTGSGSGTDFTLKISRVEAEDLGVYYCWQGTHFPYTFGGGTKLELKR

From patent publication US20180030151A1 (MOGAM INSTITUTE FOR BIOMEDICAL RESEARCH, published 2018)
